Data from the DeepSol protein solubility set.

Test: soluble on expression in E. coli; label from the status in PepcDB or PDB records

| Sequence | soluble on expression in E. coli |
| --- | --- |
| ELVMTQSPKFMSTSVGDRVSVTCKASQNVGTHVAWYQQKPGQSPKTLIYSASYRYSGVPDRFTGSGSGTDFTLTIRDVQSEDAAEYFCQQYNLFPVTFGGGTKLEIKRTVAAPSVFIFPPSDEQLKSGTASVVCLLNNFYPREAAVAWKVDNALQSGNSQESVTEQDSADSTYSLSSTLTLSKADYEKHKVYACEVTHQGLSSPVTKSFNRGE | soluble |
| MSLKKKLLLMVSVLAVLFVAAACSSKPEAKINTEPYSDRQTMLGTYVQIRIYDDGKEDVLPKAFARVKELGDKITVNQPGSEIDEINQEAGVKPVKVSDDLYPLLKKAYEYSKDSRGGFDMAIGPITSMWHIGFDDARKPSQAEIDQALKLVDYTKVKFNDKEQTVYLEEKGMQLDLGAIAKGFITDEVVKVLKDNGVTTAIVDLGGNVYVLGHSPRGKDMDWTVGIQDPNKARNTVLGQVKESNKTLVTSGIYERYLKVDGKTYHHLFDRETGYPFDNDIAGVTIITDKSIDGDGLSTAVFSMGVKKGLEYVESLKGTDAIFVTKDDKVYISKDIEGNFEIGKDSGYTMGNRADLKEGGSHHHHHH | soluble |
| MTVPIAIIGTGIAGLSAAQALTAAGHQVHLFDKSRGSGGRMSSKRSDAGALDMGAQYFTARDRRFATAVKQWQAQGHVAEWTPLLYNFHAGRLSPSPDEQVRWVGKPGMSAITRAMRGDMPVSFSCRITEVFRGEEHWNLLDAEGQNHGPFSHVIIATPAPQASTLLAAAPKLASVVAGVKMDPTWAVALAFETPLQTPMQGCFVQDSPLDWLARNRSKPERDDTLDTWILHATSQWSRQNLDASREQVIEHLHGAFAELIDCTMPAPVFSLAHRWLYARPAGAHEWGALSDADLGIYVCGDWCLSGRVEGAWLSGQEAARRLLEHLQLEHHHHHH | soluble |
| MEKISDLIECIAYEKNLPKEMISKVIQGCLLKMAQNELDPLARYLVVEENKQLQLIQLVEVLEDGDERLVNDPSKYISLSKAKEMDPSVKIKDELSYSLSLESMKQGAINRLFKDLQYQLEKALEDSHFEAFQKRLNSVLMGQVILVDHNQNTFIEIEQQFQGVLSMRHRIKGESFKVGDSIKAVLTQVKRTKKGLLLELSRTTPKMLEALLELEVPEIKDKEIEIIHCARIPGNRAKVSFFSHNARIDPIGAAVGVKGVRINAISNELNKENIDCIEYSNVPEIYITLALAPAKILSVEIKKIPIEELNAEEKESIQERFIVNNHLQKAKVRLLDIEKSKAIGKGGVNVCLASMLTGYHIEFETIPSVKENAENESEKETPKVGVEALESLFKNLEHHHHHH | soluble |
| MPRRNPLWLRLPGSSSPSSSSTTEELRLAALSPYSPNDDISSIPDSLEHSPAKTSDDGSEISRANFSSPSSPSRSPSKKVSWSLFDQVSLSGEEFLLPRRFEAIELNAGTSTRSTSISCSATDLLESDHVTIRKISLQDPATARREYRNIILCRLLPHPNILPISEAYEVDSTLYTVSEQMDGRLSDIVEERLTHFVVAKISHQILAAVAMMHQNGIAHGDLTLSTIYVNTDAELRLSSYGKSDDSSEHLDERYRDDLLSIGAIVSRFLMNEEEMFKFSKSRNLKDIDWRVVLEGSSDSGLLDFNARSLLFQLLEGRQSARDLLRHPYFKSFRAPQHQTVERKHTVVGQKTSDEVLDKLREELQRFNPFNMSEIML | not soluble |
| MIVFYDSWCPMCTAVAEHTKKLDKKGKMKFVSFRNEDVVEKYELSQELQSKMEQRLYIFKNNKWYDGIQSIDVLAKAVPSYWFAVPFIKLSIVLGFGSKVYDYIANNRKLVPVGHCRGGVCEIPTKK | not soluble |
| MSQQEISIINLDQLVSMTSVEIAELTGKEHKHVLRDIRNMVEELNGAKTEHCSTLSSELNGSKFGLVGEEVYKDAKGESRTMYRLDRKHTFILVAGYSVHLRAKCYDHIQTLERRVLQLEDQKKRAAIQSANRRGVTWGDYCKTYGLPAQKLMTALLQHRGLFRKNPISNEWSVNPKYSDCFRIIKPSDQKFSAGGYNFRFNAKGLEVFGKPEMVDKMRGILIAFTGTDQQKQEHLLKLAQSGKVEGI | not soluble |
| MTRPIGIYEKATPKHFNWLERLQFAKELGFDFVELSIDESDERLARLEWSKEERLELVKAIFETGVRVPTITFSGHRRFPMGSNNPEKEARAMDMMKKCIVFAQDIGIRNIQLAGYDVYYEEKSPETRARFIKNLRQACTWAEEAQVILSIEIMDDPFMNSIEKYLAVEKEIDSPYLFVYPDTGNVSAWHNDLWSEFYNGHRSIAALHIKDTYAVTETSKGQFRDVPFGQGCVDWEEMFAVIKKTNYNGPFLIEMWSENCETVEETRAAIKEAQDFLYPLMEKTGVK | not soluble |
| IDHIEVLRDGASARYGSDAIAGVINIILKSADHGGSISSKYGQYKKGDGIQRQVSGNTGFALGDNGTLNLSGEGANNDYTNRAGDDLRASSIGSTTYGQQVFRQGEPETHEGKLQYNAEYSFNDAAEFYSFGGYSKRRGETAAFYRPSNASNNIAAIYPNGYLPLIHGTLEDTTFVTGLRGELADDWHYDLSANYGKNSYELRTKTINTSLGLNTPRSFDNGTLTNDQKQLSLDLSREFNATWLPYPVSVAFGAEYLRQGYQIEAGQAESYFQTGSSGLGGFRAADAGSYSRHNFAQYLDVETNLTEKLGVSAAVRHEDYSDFGSNVSGSLSARYDFTP | not soluble |
| MADTGEVQFMKPFISEKSSKSLEIPLGFNEYFPAPFPITVDLLDYSGRSWTVRMKKRGEKVFLTVGWENFVKDNNLEDGKYLQFIYDRDRTFYVIIYGHNMCSEYRDFPQVAVEVDDYENGEEEEDGDDQDKHQ | soluble |
| GPGSMPKEPILHAELREWLEEYRRHRAFNPIAWIEEKCTKLNEYMRNNKLRGCVTNVSGGVDSAVVLSLCSRAQRMEGSPIVRNVGICQPICSSAWALERGRENIRAAGAEEVVVDQTDIHRQLSLSVEAAVGIDGKDFARGQLRSYMRAPVGYYVAQLCSQSGTPTIVMGTGNMDEDGYLGYFCKAGDGVVDVQLISDLHKSEVFKVARELGVPENTLQAAPSADLWDGQTDEEELGFPYDFVELYTGYFLKLNNGEREMKKKSLSAEARHQFEAYMKSCEETHCRNAHKLNGIVNL | soluble |
| MRLLLFRQRNFRNLALEAYRPPPGLSALVGANAQGKTSLLLGIHLALGGEVPLGLADLVRFGEEEAWLHAEVETELGAYRLEHRLGPGGREVLLNGKRVSLRTLWELPGSVLVSPLDLEAVLGPKEERRAYLDRLIARFSRRYAALLSAYEKALRQRNALLKAGGEGLSAWDRELARYGDEIVALRRRFLRRFAPILREVHAALAAKEAGLRLEETAGEGVLRALEASRAEERERGQTLVGPHRDDLVFLLEGRPAHRFASRGEAKTLALALRLAEHRLLGEHHGEPPLLLVDEWGEELDEARRRAVLAYAQALPQAILAGLEAPPGVPVCSVVRGVVLCPGA | soluble |
| MSKRLPPLNALRVFDAAARHLSFTRAAEELFVTQAAVSHQIKSLEDFLGLKLFRRRNRSLLLTEEGQSYFLDIKEIFSQLTEATRKLQARSAKGALTVSLPPSFAIQWLVPRLSSFNSAYPGIDVRIQAVDRQEDKLADDVDVAIFYGRGNWPGLRVEKLYAEYLLPVCSPLLLTGEKPLKTPEDLAKHTLLHDASRRDWQAYTRQLGLNHINVQQGPIFSHSAMVLQAAIHGQGIALANNVMAQSEIEAGRLVCPFNDVLVSKNAFYLVCHDSQAELGKIAAFRQWILAKAATEQEKFRFRYEQ | not soluble |
| MMLITTSHRPTRRTRSFGHDLERVIPNSLYLTRGKKTIQELLMEAYDRGYERLLIINVWKGNPLKMTFIKVHPEDWGYLGYLYLHGVKLQREMGFKGLNPIREDMPLVITTAKRVGLDHLAFAQVFSELTTGKFVPRGDKSLLSIADRYNTDVLAVIERHPRGIVINFYRLDITKDRPVGPLINVKIWIMEDGRRWDYKEAFGIKVPPRRREFEGKRGEGKNSDLEHHHHHH | not soluble |
| MDSQLSNRLAQVAAYVPKGVKLLDVGSDHAYLPIFLVETNQISAAIAGEVVRGPYESALKNVTQSGLAEHIQVRLANGLAAFEEADDVTAITICGMGGRLIADILEAGKEKLQGIERLVLQPNNREDDLRAWLSVNAFKIVAETIMAENDKYYEIIVAEHGEKALSATELRFGPYLSQEKSVVFKEKWQREMDKLAYALSCIPEEKTQERQLLLTKIQQIKEVIVHES | not soluble |
| MGSDKIHHHHHHMSFKDIQADFIEAIRRPDLPCPHGIAPQRMGVYRELFFNNVSGFVNSGFPVLKSLYGEAQWQAQLRQFFTEHDCQNPLFIGIAGEFLAFLSARERQVDEPPFLLELAHYEWLELVVATAMEQGDEAAFDDTALAQQAYLDARLGLASHARVAQYHFEVEKISPQYQPDTPLPSPCYFCLYRDSDDEVSFLKLNPMTAQLLAVLEANTGIKYIELLQKMQALYPNFDGQQLREGIAQVLGQMAVRGVVVQKLQ | not soluble |
| MKRFAFFDVDDTLITVKSMFDFFRYWTLEWRRESAALEAFEREFSQLRAAGESRENLNRAYYRYFAGIRSEDIERAGAAWASAWLAHPERFFIAAPVHLLRELSADGVEPVFVSGSFDAVLRPIADHLSVTNILAAPLELRADGCYTGRIGTPQTIGAGKAVAIRNFLSEQKVRADVCLAVGDDISDLPMLQSVGTAVVVGEHPQLTEIADARSWRRLPAMAE | not soluble |
| MSSAFLADRRLIRVSGTGAEEFLNNLITADIENLPEGETRASALLTPQGKILFDFLIWRDGRDYLVETGAAEQDALLRRLTMYKLRAPVELKAETVEGIGVFWGNSVTEAGVRDGRFAKAGVDLRRVPGASASGEAAAYEALRVEHGIAESGRDYALQDAFPHDVLMDVNDGVSFKKGCFVGQEVVSRMKHRGTARRRVVTVSADGTLPASGTEITANGKPVGALGTVYGNRALAIVRTDRVADALAAGTPLLADNVAVSVALPAWSGLSFPAADPAARAED | not soluble |
| MTFSDPMDPSIPIFQHHEEEEAGPSTTIKAEEEDGPCCLVCGRVANTGHHYGVTACLGCKTFFRRVVLQKNSPKCKYKNHCRLEKSVNAKRLCRSCRYQKCLEVGMTEDALHPCRDVIGRRVRNNSSDSSPISSPPSIPTPLSICKLMNLSEGDHKLLQTITDMDTDIRTRTAHILGEPANGNEQIHFYSPTPDYTNVIVNHGIGPSLKVDILLLREWVDRIPGFRELSERFQQHLMHRFCLRYTVIEHGLFTAQMPYHKNVWFLSDRTCLVSEFENLPQEIKKHLTPKVINEQQLLASFTEMLIHEVADPLRRLKPDSVEVATVKTLMLLKPTCLREIDGDYLSTETDIKSVNDVRNRVINGLYSHYIKNGMDPEQLPIRVSEILNLTGGVEQCAARALEEMHPTRVFNLSSFDPYSSNVIFGYYRDV | not soluble |
| MANFIIELSADESFNIVINDLKPIETYRVEMFLSDYYCINAPMRLAHDVLWKSTATFVSDTNGIINISQTPSCSGSYEGISTMGLFFNAKPLTNKRKKLPNSISKIPLLDHFFVGIKIMQGNTVIAERTFTRHYMSSQISHQDIYGKHFQGRLFYDKKAIKTPSIDYCER | not soluble |
| KPPAESASQTAVAITQSSVKTMAPALQAIVDQSWQLQLSASPEMAYGMGDKSAAGKLQDLSPEALAKLNQGQIAILVQLKALDRSKLSKEDKINAQILEDQLQNEVDLYKYKDYYLPITAESGFHAYISSIAQGRFNTQEDYQNYLDKLKALPNYFAQQTYWLKQGLKEGITPPKATLKGFENSISAYILPVEKSSYFKPFTQYPNHFTEAQKAQLTQQGRALVEQNVIPTYQAFYDFMTQEYMPNTRDNIAANSLPNGDAFYENRVRYYTTLDITSAEVHELGLKEVKRIRQEMEQVIKSVGFKGSFADFLYFLRTDPQFYATSADQLLKEAAFIAKKADATLPKYFGKLPRKPYGIAPVPAEIAPKYTSGRYSGSNRDDEPGYYWVNTYALDKRPLYELEALTLHEAVPGHHLQISLNSELSSQPDFRRYSYISAFGEGWGLYSEYLGLEAGFYQDPYSNFGRLTYEMWRAARLVVDTGMHAQGWSREQAIEFMANNTALSLHNVTTEIDRYITWPGQALSYKIGELTIKRLRAKAEQALGDKFDIRAFHDAVLENGSVPMSVLEQQINDFIEAKKAA | soluble |
